In paper PMC2918618, “Characterization of the TnsD-attTn7 complex that promotes site-specific insertion of Tn7” (Mobile DNA, 2010):

Columns and labels:
Assay in all cases: EMSA; Gel-shift buffer not given (as described in ref. 6); TnsD stored in 500 mM KCl, 50 mM Tris-HCl pH 8.0, 1 mM EDTA, 2 mM DTT, 25% glycerol
Details in all cases: protein: recombinant
TnsD 1-350 = target: T1, TnsD 1-350 (Escherichia coli (transposon Tn7), UniProt P13991 1-350)
T1 sequence: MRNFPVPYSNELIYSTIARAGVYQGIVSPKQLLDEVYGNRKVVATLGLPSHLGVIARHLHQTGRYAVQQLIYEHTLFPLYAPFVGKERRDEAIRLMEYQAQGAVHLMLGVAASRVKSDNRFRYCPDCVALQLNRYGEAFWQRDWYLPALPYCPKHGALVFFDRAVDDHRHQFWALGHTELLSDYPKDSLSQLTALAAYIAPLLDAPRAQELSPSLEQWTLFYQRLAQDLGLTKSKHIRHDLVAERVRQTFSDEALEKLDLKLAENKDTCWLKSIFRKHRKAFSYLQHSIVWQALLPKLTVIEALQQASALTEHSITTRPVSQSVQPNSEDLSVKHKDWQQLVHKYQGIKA

TnsD 1-480 = target: T2, TnsD 1-480 (Escherichia coli (transposon Tn7), UniProt P13991 1-480)
T2 sequence: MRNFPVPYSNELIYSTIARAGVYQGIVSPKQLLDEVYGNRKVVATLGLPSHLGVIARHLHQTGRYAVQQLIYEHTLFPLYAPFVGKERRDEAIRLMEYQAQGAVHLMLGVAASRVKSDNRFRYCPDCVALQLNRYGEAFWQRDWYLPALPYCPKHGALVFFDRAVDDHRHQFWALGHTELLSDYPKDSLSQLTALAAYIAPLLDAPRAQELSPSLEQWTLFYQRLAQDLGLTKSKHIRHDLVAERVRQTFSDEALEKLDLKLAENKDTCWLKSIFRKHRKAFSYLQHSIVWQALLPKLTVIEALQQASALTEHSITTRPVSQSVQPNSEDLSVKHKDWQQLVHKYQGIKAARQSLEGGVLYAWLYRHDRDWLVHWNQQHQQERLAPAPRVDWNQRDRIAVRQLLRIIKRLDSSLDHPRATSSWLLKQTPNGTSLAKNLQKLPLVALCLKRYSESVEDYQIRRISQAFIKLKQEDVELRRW

TnsD 1-498 = target: T3, TnsD 1-498 (Escherichia coli (transposon Tn7), UniProt P13991 1-498)
T3 sequence: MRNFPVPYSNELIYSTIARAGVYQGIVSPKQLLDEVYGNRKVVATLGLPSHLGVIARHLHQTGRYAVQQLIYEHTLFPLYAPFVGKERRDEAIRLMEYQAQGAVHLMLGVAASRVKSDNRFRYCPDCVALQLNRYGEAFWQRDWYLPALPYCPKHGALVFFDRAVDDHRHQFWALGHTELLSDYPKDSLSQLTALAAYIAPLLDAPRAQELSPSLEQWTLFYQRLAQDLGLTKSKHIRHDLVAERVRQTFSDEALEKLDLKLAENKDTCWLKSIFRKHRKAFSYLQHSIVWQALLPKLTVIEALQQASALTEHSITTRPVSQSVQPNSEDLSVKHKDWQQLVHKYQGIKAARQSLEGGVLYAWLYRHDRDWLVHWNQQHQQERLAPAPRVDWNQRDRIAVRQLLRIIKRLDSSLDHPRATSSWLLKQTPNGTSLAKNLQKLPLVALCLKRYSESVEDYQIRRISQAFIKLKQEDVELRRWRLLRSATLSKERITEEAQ

TnsD 1-399 = target: T4, TnsD 1-399 (Escherichia coli (transposon Tn7), UniProt P13991 1-399)
T4 sequence: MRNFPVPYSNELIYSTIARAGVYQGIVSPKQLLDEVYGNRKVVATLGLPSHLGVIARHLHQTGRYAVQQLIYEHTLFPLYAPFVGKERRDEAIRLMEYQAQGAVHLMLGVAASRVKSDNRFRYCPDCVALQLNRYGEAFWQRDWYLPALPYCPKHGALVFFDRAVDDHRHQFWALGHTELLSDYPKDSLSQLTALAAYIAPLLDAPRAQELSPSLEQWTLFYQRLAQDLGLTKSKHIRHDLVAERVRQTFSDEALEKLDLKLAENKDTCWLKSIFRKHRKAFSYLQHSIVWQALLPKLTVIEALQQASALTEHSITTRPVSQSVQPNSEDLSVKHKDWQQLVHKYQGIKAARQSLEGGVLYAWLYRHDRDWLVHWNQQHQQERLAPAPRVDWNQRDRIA

TnsD 1-490 = target: T5, TnsD 1-490 (Escherichia coli (transposon Tn7), UniProt P13991 1-490)
T5 sequence: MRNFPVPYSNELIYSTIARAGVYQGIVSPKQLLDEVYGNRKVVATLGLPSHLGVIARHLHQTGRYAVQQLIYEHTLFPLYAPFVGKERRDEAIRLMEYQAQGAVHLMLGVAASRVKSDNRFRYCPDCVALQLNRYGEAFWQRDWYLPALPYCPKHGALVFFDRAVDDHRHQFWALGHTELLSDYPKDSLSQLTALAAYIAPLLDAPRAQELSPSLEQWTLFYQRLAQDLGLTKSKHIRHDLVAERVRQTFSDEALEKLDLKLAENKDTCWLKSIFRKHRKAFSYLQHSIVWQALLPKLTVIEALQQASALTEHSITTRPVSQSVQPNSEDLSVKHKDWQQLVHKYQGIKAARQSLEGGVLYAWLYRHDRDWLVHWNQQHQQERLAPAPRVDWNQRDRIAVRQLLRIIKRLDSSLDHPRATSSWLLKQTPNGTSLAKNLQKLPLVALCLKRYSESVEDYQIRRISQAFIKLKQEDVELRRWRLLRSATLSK

Measured: binding result

B1: attTn7 wt (+23 to +58) (dsDNA)
DNA 1: CCGCGTAACCTGGCAAAATCGGTTACGGTTGAGTAA
DNA 2: TTACTCAACCGTAACCGATTTTGCCAGGTTACGCGG
no binding: all assays above
